Measured values taken from FireProtDB (doi:10.1110/ps.8.8.1623).
Values joined by “and” are separate entries in the source; they are usually repeats but may differ in a detail not shown here. Equal entries are not always repeated.

Details: Escherichia coli (strain K12), pH 7.8, 25 °C, Urea, Potassium phosphate 100 mM, transition: 3, whole UniProt chain shown

B1: Tryptophan synthase alpha chain wild type, P0A877 (protein)
chain: MERYESLFAQLKERKEGAFVPFVTLGDPGIEQSLKIIDTLIEAGADALELGIPFSDPLADGPTIQNATLRAFAAGVTPAQCFEMLALIRQKHPTIPIGLLMYANLVFNKGIDEFYAQCEKVGVDSVLVADVPVEESAPFRQAALRHNVAPIFICPPNADDDLLRQIASYGRGYTYLLSRAGVTGAENRAALPLNHLVAKLKEYNAAPPLQGFGISAPDQVKAAIDAGAAGAISGSAIVKIIEQHINEPEKMLAALKVFVQPMKAATRS
For B1, the unfolding free energy (CD) was 6.6 kcal/mol and 4.6 kcal/mol and 4.4 kcal/mol, the denaturant m value (Fluorescence) was 2.2 kcal/mol/M and 1.1 kcal/mol/M and 0.83 kcal/mol/M and the unfolding free energy (Fluorescence) was 6 kcal/mol and 4.5 kcal/mol and 4.9 kcal/mol.
